{
  "source": "patent US20240076389A1",
  "about": "(NATIONAL RESEARCH COUNCIL OF CANADA, published 2024)",
  "binders": {"B1": {"name": "hFC-F107-10G1 (antibody, human IgG1, kappa, V domains shown)", "VH": "EVNLVESGGGVVKPGASLKLSCEASGFTFSNYGMSWVRQTSDKRLEWVASISGGGGRTYYLDNVKGRFIISRENAKNTLYLQMSSLKSEDTALFYCARGARASYFAMDYWGQGSSVTVSS", "VL": "VIVMTQSHKFMSTSVGDRVSITCKASQDVTTAVAWYQQKPGQSPKLLIYWASTRHTGVPDRFTGSGSGTDYSLTISNVQTEDLAFYYCQQHFTTPLTFGAGTKLELKR", "notes": "Chimeric mAb, human IgG1 / human kappa constant regions; also called mAb F107-10G1"}},
  "key": {"[1]": {"molecular_target": "T1, recombinant human AXL extracellular domain, C-terminally His8-tagged (rhAXL-ECD) (human, UniProt P30530 26-451)", "T1 construct": "Made in CHO cells; also called (rh)AXL-ECD His8; human AXL ECD", "T1 sequence": "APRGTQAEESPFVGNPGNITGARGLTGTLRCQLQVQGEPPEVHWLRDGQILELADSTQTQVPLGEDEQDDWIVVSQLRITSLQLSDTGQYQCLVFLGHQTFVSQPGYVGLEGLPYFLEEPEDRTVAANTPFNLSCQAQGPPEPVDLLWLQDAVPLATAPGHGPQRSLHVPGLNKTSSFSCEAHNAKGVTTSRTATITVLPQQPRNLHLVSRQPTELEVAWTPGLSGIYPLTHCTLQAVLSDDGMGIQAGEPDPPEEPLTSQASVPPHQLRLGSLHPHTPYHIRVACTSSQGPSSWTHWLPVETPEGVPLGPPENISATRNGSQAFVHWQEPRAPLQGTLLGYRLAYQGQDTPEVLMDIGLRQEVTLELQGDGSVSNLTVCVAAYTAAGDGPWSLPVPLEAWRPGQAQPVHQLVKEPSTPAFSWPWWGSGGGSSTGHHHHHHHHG", "experiment": "SPR Biacore T200, mAb captured on anti-Fc, AXL ECD flowed (footnote b printed in a row of footnote a)", "experimental": "(§1) Surface plasmon resonance. For murine mAbs, binding to human and cynomolgus AXL ECD was assessed using a Biacore T200 instrument. Briefly, either anti-mouse or anti-human Fc antibody was immobilized on a research-grade CM5 series S sensor chip using amine coupling in acetate buffer. Murine or recombinant chimeric murine-human mAbs (mouse VH/VL; human constant regions) were captured, then recombinant human or cyno AXL ECD was flowed over the surface at different concentration ranges (0.1-500 nM) depending on the antibody. The running buffer was PBS/Tween-20 and the flow rate 100 uL/min. All binding studies were performed at 25° C. Surfaces were regenerated using 10 mM glycine, pH 1.5."}, "[2]": {"molecular_target": "T1, recombinant human AXL extracellular …", "experiment": "ELISA on coated AXL ECD (100 ng/well), HRP-protein A", "experimental": "ELISA. ELISAs against human, cyno and mouse AXL ECDs were conducted by immobilizing 100 ng of each protein in wells of Nunc MaxiSorp microplates overnight. Human AXL (aa 1-451) and cyno AXL (aa 1-449) were produced recombinantly as described in Example 10. Mouse AXL was purchased from Sino (cat. 51026-M08H). The next day, plates were blocked with 5% (w/v) dried milk in PBS. Murine mAbs (either hybridoma- or recombinantly-produced) or VHH-Fcs were diluted in PBS containing 1% BSA and 0.1% Tween-20 and added to wells for 2 hours at room temperature. Wells were washed 5× with PBS containing 0.1% Tween-20, then HRP-labeled protein A (diluted 1:1000 in PBS containing 1% BSA and 0.1% Tween™-20) was added to wells for 1 hour at room temperature. Wells were washed again 5× with PBS/0.1% Tween-20 and developed using TMB substrate. Absorbance was measured at 450 nm. As a positive control for mouse AXL binding, a commercial anti-mouse AXL mAb (clone 175128, R&D Systems MAB8541, rat IgG2A) was used and detected with donkey […] secondary antibody."}, "[3]": {"molecular_target": "T1, recombinant human AXL extracellular …", "experiment": "SPR Biacore T200, mAb captured on anti-Fc, AXL ECD flowed, multi-cycle kinetics", "experimental": "as §1"}, "[4]": {"molecular_target": "T2, recombinant cynomolgus AXL extracellular domain (cynomolgus)", "T2 construct": "range 1-449; also called Cyno AXL; cyno AXL ECD", "experiment": "SPR Biacore T200, mAb captured on anti-Fc, AXL ECD flowed, multi-cycle kinetics", "experimental": "as §1"}, "[5]": {"molecular_target": "T3, huMER-ECD displayed on yeast (human, UniProt Q12866 21-505)", "T3 construct": "extracellular domain", "T3 sequence (looked up)": "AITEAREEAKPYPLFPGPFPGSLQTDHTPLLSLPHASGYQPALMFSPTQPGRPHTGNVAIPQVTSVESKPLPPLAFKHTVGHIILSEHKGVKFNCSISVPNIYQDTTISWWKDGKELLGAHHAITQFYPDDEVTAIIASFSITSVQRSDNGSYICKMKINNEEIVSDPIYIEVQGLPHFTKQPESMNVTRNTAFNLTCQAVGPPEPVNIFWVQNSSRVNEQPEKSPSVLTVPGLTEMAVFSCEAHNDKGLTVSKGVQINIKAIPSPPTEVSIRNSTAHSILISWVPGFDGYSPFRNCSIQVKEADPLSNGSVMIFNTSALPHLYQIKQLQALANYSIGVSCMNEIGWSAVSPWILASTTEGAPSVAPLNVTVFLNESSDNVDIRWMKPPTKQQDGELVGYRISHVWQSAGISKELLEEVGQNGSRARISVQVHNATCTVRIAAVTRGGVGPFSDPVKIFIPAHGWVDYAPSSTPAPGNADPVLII", "experiment": "yeast surface display ELISA, non-denatured yeast, goat anti-human F(ab')2-HRP"}},
  "data": [
    {"binder": "B1", "values": [
      {"measurement": "koff", "setting": "[1]", "value": 0.00059, "unit": "s⁻¹"},
      {"measurement": "EC50", "setting": "[2]", "value": 2, "unit": "nM"},
      {"measurement": "Kd", "setting": "[3]", "value": 0.4, "unit": "nM"},
      {"measurement": "koff", "setting": "[3]", "value": 0.00056, "unit": "s⁻¹"},
      {"measurement": "kon", "setting": "[3]", "value": "1.2e+06", "unit": "M⁻¹ s⁻¹"},
      {"measurement": "Kd", "setting": "[4]", "value": 0.2, "unit": "nM"},
      {"measurement": "koff", "setting": "[4]", "value": 0.00023, "unit": "s⁻¹"},
      {"measurement": "kon", "setting": "[4]", "value": "1.8e+06", "unit": "M⁻¹ s⁻¹"},
      {"measurement": "yeast ELISA signal normalized to myc expression level", "setting": "[5]", "value": -0.02}
    ]}
  ]
}
